Publication PMC6165534, “Inhibition of Homophilic Interactions and Ligand Binding of the Receptor for Advanced Glycation End Products by Heparin and Heparin-Related Carbohydrate Structures” (Medicines, 2018)

B1: RAGE V1-domain Ig-fusion protein (Fc fusion, human, UniProt Q15109 28-119, looked up)
chain: ARIGEPLVLKCKGAPKKPPQRLEWKLNTGRTEAWKVLSPQGGGPWDSVARVLPNGSLFLPAVGIQDEGIFRCQAMNRNGKETKSNYRVRVYQ
notes: RAGE, human, V1-domain, amino acids 28–119; also called V1–Ig; RAGE V1–Fc; source: Drosophila S2 cells, purified (protein A-agarose chromatography)
B2: sRAGE–Ig fusion protein lacking C2-domain (Fc fusion, human, UniProt Q15109 28-231, looked up)
chain: ARIGEPLVLKCKGAPKKPPQRLEWKLNTGRTEAWKVLSPQGGGPWDSVARVLPNGSLFLPAVGIQDEGIFRCQAMNRNGKETKSNYRVRVYQIPGKPEIVDSASELTAGVPNKVGTCVSEGSYPAGTLSWHLDGKPLVPNEKGVSVKEQTRRHPETGLFTLQSELMVTPARGGDPRPTFSCSFSPGLPRHRALRTAPIQPRVWE
notes: RAGE, human, extracellular part without the C2-domain, amino acids 28–231; also called delta C2; source: Drosophila S2 cells, purified (protein A-agarose chromatography)
B3: sRAGE–Ig fusion protein lacking C1-domain (Fc fusion, human, UniProt Q15109 28-331, looked up)
chain: ARIGEPLVLKCKGAPKKPPQRLEWKLNTGRTEAWKVLSPQGGGPWDSVARVLPNGSLFLPAVGIQDEGIFRCQAMNRNGKETKSNYRVRVYQPVPLEEVQLVVEPEGGAVAPGGTVTLTCEVPAQPSPQIHWMKDGVPLPLPPSPVLILPEIGPQDQGTYSCVATHSSHGPQESRAVSISIIEPGEEGPTAG
notes: RAGE, human, extracellular part without the C1-domain, amino acids 28–119 + 232–331; also called delta C1; source: Drosophila S2 cells, purified (protein A-agarose chromatography)

Molecular target: the molecule itself
Assay: bead aggregation assay; monomeric fluorescent protein A coated beads incubated with 10 μg/mL of the Ig-fusion proteins, no other exogenous ligands; aggregation followed by fluorescence microscopy, index Nt/N0, pictures after 60 min

Binding result, binds:
B1
B2
B3
